This note sets out measurements from PMC2603606.

Common to all, as to assay: crystal structure
The target in assay [1] is NITR10 (D50N) V region protein (channel catfish (Ictalurus punctatus)).
Assay [2] concerns the target NITR10 V region protein (novel immune-type receptor 10, Ig V domain) (channel catfish (Ictalurus punctatus)).
Assay [3] deals with NITR11 (N50D) V region protein (channel catfish (Ictalurus punctatus)).
Assay [4] concerns the target NITR11 V domain and membrane proximal stalk region, disulfide-linked homodimer (channel catfish (Ictalurus punctatus)).
Assay [5] concerns the target NITR11 V region protein (novel immune-type receptor 11, Ig V domain) (channel catfish (Ictalurus punctatus)).

In assay [1], “NITR10 (D50N) V region protein (domain or fragment)” showed a stoichiometry N of 2.

“NITR10 V region protein (novel immune-type receptor 10, Ig V domain) (domain or fragment)” came in with a stoichiometry N in assay [2] of 2.

“NITR11 (N50D) V region protein (domain or fragment)” displayed a stoichiometry N in assay [3] of 2.

Substance “NITR11 V domain and membrane proximal stalk region, disulfide-linked homodimer (domain or fragment)” gave a stoichiometry N in assay [4] of 2.

In assay [5], “NITR11 V region protein (novel immune-type receptor 11, Ig V domain) (domain or fragment)” returned a stoichiometry N of 2.
